Data published in PMC10397247.

Columns and labels:
Assay in all cases: two-hybrid library CCmax;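 further: natural log of median RNA to DNA barcode read ratio; higher means stronger binding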
APC1115-AA = target: T1, APC1115-AA
T1 chain: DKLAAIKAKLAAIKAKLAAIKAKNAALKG

APC1242-AA = target: T2, APC1242-AA; details: mean of both orientations
T2 chain: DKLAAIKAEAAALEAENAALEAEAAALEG

APC1916-AA = target: T3, APC1916-AA; details: mean of both orientations
T3 chain: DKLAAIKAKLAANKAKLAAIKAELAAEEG

APC1987-AA = target: T4, APC1987-AA; details: mean of both orientations
T4 chain: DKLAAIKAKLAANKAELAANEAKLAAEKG

APC222-AA = target: T5, APC222-AA; details: mean of both orientations
T5 chain: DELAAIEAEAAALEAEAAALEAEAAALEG

APC2257-AA = target: T6, APC2257-AA; details: mean of both orientations
T6 chain: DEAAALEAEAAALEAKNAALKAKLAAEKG

APC2375-AA = target: T7, APC2375-AA; details: mean of both orientations
T7 chain: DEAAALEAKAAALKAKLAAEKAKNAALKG

APC2474-AA = target: T8, APC2474-AA; details: mean of both orientations
T8 chain: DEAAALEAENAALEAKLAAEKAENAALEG

APC2543-AA = target: T9, APC2543-AA; details: mean of both orientations
T9 chain: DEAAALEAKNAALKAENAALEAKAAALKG

APC2556-AA = target: T10, APC2556-AA; details: mean of both orientations
T10 chain: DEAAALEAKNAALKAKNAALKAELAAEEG

APC2724-AA = target: T11, APC2724-AA; details: mean of both orientations
T11 chain: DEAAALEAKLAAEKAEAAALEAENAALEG

APC2811-AA = target: T12, APC2811-AA; details: mean of both orientations
T12 chain: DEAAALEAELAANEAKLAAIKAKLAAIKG

APC2981-AA = target: T13, APC2981-AA; details: mean of both orientations
T13 chain: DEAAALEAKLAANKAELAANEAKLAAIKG

APC3265-AA = target: T14, APC3265-AA; details: mean of both orientations
T14 chain: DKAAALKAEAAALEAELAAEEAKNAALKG

APC3323-AA = target: T15, APC3323-AA; details: mean of both orientations
T15 chain: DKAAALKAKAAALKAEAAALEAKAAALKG

APC3354-AA = target: T16, APC3354-AA; details: mean of both orientations
T16 chain: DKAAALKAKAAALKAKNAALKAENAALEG

APC3881-AA = target: T17, APC3881-AA; details: mean of both orientations
T17 chain: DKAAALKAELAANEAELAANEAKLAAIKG

APC4100-AA = target: T18, APC4100-AA; details: mean of both orientations
T18 chain: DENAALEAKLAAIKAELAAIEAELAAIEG

APC4336-AA = target: T19, APC4336-AA; details: mean of both orientations
T19 chain: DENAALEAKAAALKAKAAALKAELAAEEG

APC5009-AA = target: T20, APC5009-AA; details: mean of both orientations
T20 chain: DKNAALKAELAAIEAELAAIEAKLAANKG

APC542-AA = target: T21, APC542-AA; details: mean of both orientations
T21 chain: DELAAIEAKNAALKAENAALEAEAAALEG

APC5531-AA = target: T22, APC5531-AA; details: mean of both orientations
T22 chain: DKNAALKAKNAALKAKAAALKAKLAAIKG

APC6088-AA = target: T23, APC6088-AA; details: mean of both orientations
T23 chain: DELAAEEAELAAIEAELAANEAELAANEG

APC7524-AA = target: T24, APC7524-AA; details: mean of both orientations
T24 chain: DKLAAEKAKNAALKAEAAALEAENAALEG

APC8401-AA = target: T25, APC8401-AA; details: mean of both orientations
T25 chain: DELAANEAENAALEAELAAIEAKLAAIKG

APC8516-AA = target: T26, APC8516-AA; details: mean of both orientations
T26 chain: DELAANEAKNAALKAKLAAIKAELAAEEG

APC9141-AA = target: T27, APC9141-AA; details: mean of both orientations
T27 chain: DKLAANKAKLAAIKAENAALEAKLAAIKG

APC9182-AA = target: T28, APC9182-AA; details: mean of both orientations
T28 chain: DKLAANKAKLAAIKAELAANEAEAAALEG

APC9291-AA = target: T29, APC9291-AA; details: mean of both orientations
T29 chain: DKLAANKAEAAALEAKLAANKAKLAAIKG

APC9806-AA = target: T30, APC9806-AA; details: mean of both orientations
T30 chain: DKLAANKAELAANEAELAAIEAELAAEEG

Binder: DKLAAIKAKLAAIKAKLAAIKAKNAALKG [APC1115-AA]
- interaction score (APC1115-AA): -0.803
- interaction score (APC1242-AA): -1.35
- interaction score (APC1916-AA): -1.84
- interaction score (APC1987-AA): -1.74
- interaction score (APC222-AA): 0.216
- interaction score (APC2257-AA): -1.42
- interaction score (APC2375-AA): -1.67
- interaction score (APC2474-AA): -1.58
- interaction score (APC2543-AA): -1.49
- interaction score (APC2556-AA): -1.69
- interaction score (APC2724-AA): -1.69
- interaction score (APC2811-AA): -1.19
- interaction score (APC2981-AA): -1.43
- interaction score (APC3265-AA): -1.52
- interaction score (APC3323-AA): -1.52
- interaction score (APC3354-AA): -1.93
- interaction score (APC3881-AA): -1.47
- interaction score (APC4100-AA): 0.913
- interaction score (APC4336-AA): -1.61
- interaction score (APC5009-AA): -0.451
- interaction score (APC542-AA): -1.93
- interaction score (APC5531-AA): -1.86
- interaction score (APC6088-AA): -1.12
- interaction score (APC7524-AA): -1.68
- interaction score (APC8401-AA): -1.04
- interaction score (APC8516-AA): -1.51
- interaction score (APC9141-AA): -1.58
- interaction score (APC9182-AA): -1.98
- interaction score (APC9291-AA): -1.83
- interaction score (APC9806-AA): -1.67
